Measured values from the domain aggregation screens of Martell et al. (2025).

Experiment: soluble fraction after stress (log2 fold change); higher = more stays soluble; pooled small domains, quantitative proteomics
Conditions: stress: 50 degC
Outline: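 The stress applied to every library was 50°C. These custom libraries of small protein domains were pooled and measured at high throughput with quantitative proteomics as the read-out. Aggregation propensity is expressed as the base-two logarithm of the fold change in how much of each protein remains soluble. The higher the value, the more of that protein stays in solution.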

Sequence	soluble fraction (log2)
HMQAGNAVEQYPTIGRLEEVTLGRSQPGAPIGERLSTLETVVFKRNFNDDSLFDRTERLKKTILGG	0.0575
HMGDAPLITVDKRTIKVNGAKAQIQVYDTTGRLVKNVSPAGKLTLIEMAKPGIFIVHTQSMSFKVVL	-0.448
HMSEPQYKVLFSNLDDRDGGAIVTALGAMNVPYKYNDTGTALLVPADRVYDARLQLASQGLPRG	0.18
HMDPYLSGLLQKLAETDKKISFTRLRSEDLDGESREAIYEFIEKYSGRFGVRWLLNEFGLSPSVYYNYLHS	-0.741
HMPESFSEMQKRTGVGEFSDDALSAKYVDSIDADVMSLDEYIMKVRGISLDDLEAERALRAR	0.0325
HMGSWEDALKNWVDSALASGQKGILEQAVPKFERIMIETALTHTAGRRRDASLLLGWGRNTLTRKIKELGI	-0.214
HMLEKVLDNHIHKLRLQHKISQQELADAIGVSRKTISTVETGRFTPSVVIALKIAAHFSVSVEQVFTL	-0.964
HMKSQSIFNVKKGDTLSHIAVHVLKKNKQKVTPEAINKMVSNIAFRNKIKNPDLIFPGQKLVLEY	0.117
HMRDAKSQLQEALQKSGRLPEYELVSVEGPPHAPVFTYRVRIDGAVVGEGQGASKQAAQQAAAQSALKSG	0.145
HMNNPLLDKVYQLMKQNNITEEEIVRAVAMKGYFPDDMKLGDYPDDFIDGVLIGAWDQIKQFIINNISPFK	0.0631
HMKNEYAMVIQVNGKLRGNMLVSADLEQKDIERMALDNEDIKRFISHENDVKKMIFVPKKLINIVT	-0.351
HMAIDLPVTTVNGKDYYYYDVQPKETIFSLSQRLGISREEIISYNPGVDGGLKAYTRLYFPVESGL	-0.201
HMKHFFIIAGGKIEDAFAIEVLKGFAEKTVIAADSGMEFLRRNEIVPQVIIGDFDSVSKETLEWFQKK	-0.703
HMTVSKLKVINYTIRNGDSLWTISRKFNVTVDKVKEWNGLSDRTLLQPGQKLTLYVDPTIQISH	-0.0925
HMQGEAMQETVKKLDAFLQDNSVSMSALARALGVSPSLISQFRSGSYKGDSQAIAAKINSYIDNHNKKSK	0.0765
HMLPQYELIKQYLRHQIETGEWPIGYRTPSEPKLAEQFSVSRMTARRALQELADQGLLSRTAGSGTFVAKP	-0.483
HMWDEMKDQKLVEALLLLREDERKLIYQHVFEERTFDDISRINGLPPYKVKGIYYYAIRKIRKWMG	-1.51
HMNKTQLQIEDEVLKPLIAEIFSKSKGRFGARKIRSKLMGLGYTASERRILRLMKELGLSSAG	-0.378
HMTKASYKITTPSGVNVREGAGKRYAVRKAYPKGKTVTVTQTKEVNGNLWGKTSDGWFAIKYQGAVYASA	-0.97
HMAVQPMDQVKAWLAEDNPADIKLLVPVLQKLDLLDYEQVRGEVADRAGVRKSLLDEAVKGN	0.0999
HMPFNLKSLADRLSHVFPGLVKMRDDIGAIIVMDKIKVTEHGVTEGGGLAADRVRAVYNEFIKEY	0.195
HMSGDYRPLYPNLPESEKSEAFNLLAGSALPARLDDRTGDIMVPADRYYEARMILANAGFAD	0.0141
HMDMDRRALLLALINDRYHASVAEFARAINKAPAQVHQWLSGNRALGNAGARDIEIRLNLAQGYFDH	-1.91
HMQEKQIIDGREFYIHQVERGITLYSIAKQYNVKVADIQAENPFLEAGLQPGQTLKIPLDKVETVQEIK	0.125
HMTVKRNLVQEILRLKFRHPENFMPNRAFYQEVGINQMRWWDIFYGRKNINQEEYIALSKYF	-0.237

Sequence	soluble fraction (log2)
HMEELGKVRPELDGNEIAKVLGITPGPVLGRAYTYLLSVRLDEGPIGPDVARERLLAWWAEQPES	-1.28
HMATTIDFTVGDDVQVMNGPLESFTGKVTELNEASQKVKVDVVMFGRVTNVELDFVQVKKIT	0.162
HMNTPALRQRTQDVPALLIHFAKYFATKGQTPISFAPDFLEALKDYPWPGNVRELRNLVESMVV	-0.0746
HMAIMISINAKGEVAWNDQIISLDDLAQRFNAAGQQAQKPTVQLRADKESRYDMVAQVMSRASEAGLSDIA	-0.781
HMGGHLAYGFSRRFGLLIDEQQGEPVIIARPDYSPVHYAEARRIVGQPAALRVVDEQAFNQLLQSQQESGA	-0.346
HMDNVQLRNFAIKATEASIIYLDQEQRNFFWYNNNKKLMTVPFDENPYSAFAAYLKTDEGSEVYKAIEKKF	-1.68
HMTGMDALIGRRVFVSEEILPGDAGGRVAVDGDSWRAISVGTAKPIPAGTEVRIHGYKSLILEVEPI	-0.162
HMRAAEPTTDAQRDRRRRIVLTAMTMLQERGYDEIQMRDVAQQAGVALGTLYRYFPSKEQLFAHVLVE	-0.599
HMDTDWDVSGVTPDQYRLLFSVLGGLAGVKDVGLNPDGLRIIHTPEALPSIEKAFQANGLKLKRNVD	0.035
HMDTPPGLSPEEQAIIDIITTRGDATINELTASIDIPTPRLMGMLVDMEFRSLIAAIPGGRYRI	-1.16
HMTSPQGIERFLASGVIEGVGKAMAARIVAVFGGQTLEIIEKQPHRLREVRGIGVKTAEKIHASYQEKA	-0.81
HMENVMLRNFAIQATEAGVIKLLEDQRTFVWGSNNKKFMTVPFDEHPYSAMAAFFKTDEGLEIYKSIEKKF	-1.71
HMNPTTQIQYNLPKSEFVSIYIYDLIGNRVKSLINNYQDAGYKSVYWDAMNDLGQPVSAGMYIY	-0.134
HMEKTKLPNLVDFTYRQAEALLQTHGLKVGKVERVPDVGQTVIKAKYKGKVISWGTELNKGEKIDLVIGKG	0.189
HMNRMKLLREQHNLSQTDLAKILNISRQSYNFYENEKRDPDTTMLIRIADFFNVSLDYLLGRTNN	-1.66
HMLSKEERRSQLLDLGVRLLSTRSLDELSIDLLAEEAGISRGLLYHYFGNKHDFHEAVVRRAADDLI	-1.75
HMADFIKEIKTNNPRQLLKSILSSFMPRALILELEMLLWNDLKSKPIGEWSNTQIENVGKLLNNWILKPAA	0.0698
HMAQLVVTVDKLNKRTAIPVTLSDKSSNDSVVEKGFRFEGFPFVNTATNGKKWYKDREGFFYWAGGLMEEA	0.0125
HMVITATYTDFMDALEADEVKQVQFSSTEINYTIEKGGHVQYFKTGVVDNPQLPQILREKGVTYAAEIP	-0.0375
HMGASFITSSKDNAINIRESATTDSKVIETIKNGEILESTEKSGDWHKVTYYNSEIKKSFTGYIHNSQLK	0.168
HMHYNMNYLENLTKTELFDLAKNKFGLTYAEMERHLSIPEGGARYAIKAEHSKYGSDIKKYLVEFLLE	-1.18
HMPQNLQDQLFELILSRYPRRADAVEDLANILHLGKDPVYRRLRGDTFLSPLEISTLALHFRISLDALIV	-2.55
HMHSILDDIEGIGPARRKALMRHYMNLDAIKSATVEELAAVPSMNEKSAKAVHNFFHQQKKD	0.242
HMQDKIWVVDETQLYPKLIEAMSEGKAVIHDGVAYWAEGSGKTGVIQHLPFKETTVQNVEEAIKLAQ	0.169
HMHVGVWIMNEKGEILLEQRASNKKVDPNKWARIGGHVDAGEKPIQAIQREILEEIGVKIPLENFIVLET	-0.335

Sequence	soluble fraction (log2)
HMTDKLIAYSVDGILNVITSEAQSVKVYAIDGRLVRILQLGEGRNEVSGLAKGIYIVDNRKVAV	-1.71
HMGRSARVQQAVHQAVRALLEENDGERSALSVPLVAERAGVNSSTIYRRWGDLPRLLAAVASN	-0.481
HMEIESAHAQVLGVREIAASGATQHWIAFRFSDGHQRELLATPSQADVIFRGQQGVVHFAGDRLTGWIPE	-0.191
HMENKLIELTLSLDKSERLDKILTQELSHTRSVIQQWLKSGFVSVNGEIVKANYKAKDGDHVTIQIE	-0.198
HMDLGTHMRLIVPTGMRVDHIVYESNGKNISVDHDRSISVRWNGEVVSIDVSPLPSRPDFDVLIYMSPK	-0.0114
HMNSEEINDVRKAVDELPTHLREILLLNYFQQMSYVQISDSLEIPLGTVKSRLHAAVAAFRNAWQSSQEE	-0.617
HMDMQMPIMNGLEFLERINLTLDDNFSIIVLTGKIEDKSIEKSFELGINAYLRKPFNIYALLGIVRQN	-0.0848
HMDRLTISTLGNGLFRVNGAEAEATVYNLSGNVVKVVPADEVIDLSSLAKGVYIIHVDGEAFKVI	-0.86
HMALPEHIEPFLRGLGQALAEGDSYEDVQERLLRAYPYLDSTEFQTALARVIFISDLWGRLN	-1.55
HMQPVLSDAEVNDLKNIAGGERGYNQLMDWAGNNLTAQDAKSYDDVLATGNKAAISFAIKALMGQYEDAN	0.047
HMTLPQEPTVLPRPLRVGDTVHIRTLDKDAEVLALPDARGMVAVRAGIINTKVKLTDLTLVEEK	0.179
HMKDLTAIKGVGEFFAKKLSQAGYQSITNLTDVNAKRLQADTGIPLPIAARIIKEAQSLIAET	0.206
HMRQVFPNPSSSQIKLASSRIGQAFSILDQQGRVVLSGKVSEEAVIALENLAKGIYVLKIGSWSETILK	-0.903
HMSFYSVVISQDGSMLVAENRNEIYSNEELLELASEVNEKTGTIGTIGSLMYYKADKGGYTLITFLDNS	-3.02
HMEDDRMLVWFFRKSIQNGAQSEAEGRPIFEGKDYVHIQQPGERDYIEREAHQGDIGRWPRHWQAYQEGR	-0.329
HMNYAVTAARRESILNAALEIFGKSGYNGSSVKQVALAVGMTEAGVLHHFGTKSNLLIEVLRV	≥ 0.62
HMSHGFFELKTTQKEALIKLLDSHPNFTHTKTEADLTTAFLKLPMDAEQFNKLLFTNGIVLSHLVKRK	-0.668
HMGDAVYSKVKDLVNTYNALAKQTGKSDLVSISQSRTWMVNDTKAHEVQWNKIGITIEDDQTLTI	0.179
HMSNATELVYDDGRKLLISYETLVGGYHPDLGWIRTAKTYSISTDKHIRNYFNNVTNPRVVGEDILETLKI	0.0667
HMDRVDGWLHDGKLYLRVVDYKTGKKSFDLAELRYGLGLQMLLYLFTLKEEGQMLFGGHEIVPAGVL	-0.391
HMRMRPNERQKRIIELLSFRRHETIGNFANEFGVSRDTIKRDIITLQEEYPIISERGYEGGISLPDGYYI	-0.263
HMPQQVFKREDLQKWGLTGQADSRKRREKLGQLLGIGYGNGKQLIHRLNMFQVDRATFEQAIKQINQEEDH	-0.423
HMNEFNEVVPDSLEGERLDRLLAFIGNISRSEASNIIKGGEVLINGKVVTRPSFKVTLGNRVEFSIRD	-0.387
HMNKPKIIINSVDDSVFSDYVKDSLSIAEVARSIGIDNNKINTSVYREIHKRIDSLKLDTSHFTGGAWN	-0.174
HMIKKAILPVAGLGTRFLPASKSIPKEMVTVVDRPAIEYVVREAVEAGIEQIILVTHSSKASIENYFDR	-0.187
